From the supplement of paper PMC9112550, “Optimization of the antimicrobial peptide Bac7 by deep mutational scanning” (BMC Biology, 2022)

System: Escherichia coli TOP10
Test: shrunken log2 fold change of peptide-encoding DNA abundance (4.5 h post-induction vs induction); higher = less antimicrobial activity (less host growth inhibition)
Conditions: time post-induction: 4.5 h; library: site-saturation at positions 5, 18, 19, 20
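Further: peptides expressed intracellularly from a pBAD plasmid library in pooled LB shake-flask culture, induced with 0.3% L-arabinose, DNA abundance read by NGS, three biological replicates, DESeq2 with apeglm shrinkage.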

Sequence	shrunken log2 fold change
RRIRARPPRLPRPRPRPVSWPRP	0.813
RRIRARPPRLPRPRPRPVTAPRP	0.654
RRIRARPPRLPRPRPRPVTYPRP	-0.265
RRIRARPPRLPRPRPRPVVTPRP	0.254
RRIRARPPRLPRPRPRPVWEPRP	0.228
RRIRARPPRLPRPRPRPVWWPRP	0.987
RRIRARPPRLPRPRPRPVYWPRP	0.141
RRIRARPPRLPRPRPRPWAVPRP	0.295
RRIRARPPRLPRPRPRPWDCPRP	0.0143
RRIRARPPRLPRPRPRPWDKPRP	0.0886
RRIRARPPRLPRPRPRPWDNPRP	0.0421
RRIRARPPRLPRPRPRPWERPRP	0.12
RRIRARPPRLPRPRPRPWFIPRP	-0.502
RRIRARPPRLPRPRPRPWICPRP	-0.0278
RRIRARPPRLPRPRPRPWLLPRP	0.156
RRIRARPPRLPRPRPRPWLRPRP	0.228
RRIRARPPRLPRPRPRPWLTPRP	0.0459
RRIRARPPRLPRPRPRPWMAPRP	0.0631
RRIRARPPRLPRPRPRPWMMPRP	-0.248
RRIRARPPRLPRPRPRPWNDPRP	-0.158

Sequence	shrunken log2 fold change
RRIRARPPRLPRPRPRPWPEPRP	0.245
RRIRARPPRLPRPRPRPWPWPRP	0.261
RRIRARPPRLPRPRPRPWQIPRP	-0.0641
RRIRARPPRLPRPRPRPWQNPRP	0.05
RRIRARPPRLPRPRPRPWRVPRP	0.12
RRIRARPPRLPRPRPRPWSCPRP	-0.045
RRIRARPPRLPRPRPRPWSIPRP	-0.0906
RRIRARPPRLPRPRPRPWSKPRP	-0.27
RRIRARPPRLPRPRPRPWSVPRP	0.0303
RRIRARPPRLPRPRPRPWTEPRP	-0.181
RRIRARPPRLPRPRPRPWTQPRP	0.0723
RRIRARPPRLPRPRPRPWTYPRP	0.0209
RRIRARPPRLPRPRPRPWVNPRP	-0.246
RRIRARPPRLPRPRPRPWWMPRP	0.0201
RRIRARPPRLPRPRPRPWYGPRP	-0.634
RRIRARPPRLPRPRPRPYACPRP	-0.217
RRIRARPPRLPRPRPRPYAWPRP	-0.129
RRIRARPPRLPRPRPRPYCWPRP	-0.258
RRIRARPPRLPRPRPRPYDDPRP	0.192
RRIRARPPRLPRPRPRPYDWPRP	0.0315

Sequence	shrunken log2 fold change
RRIRARPPRLPRPRPRPYECPRP	-0.327
RRIRARPPRLPRPRPRPYEHPRP	-0.25
RRIRARPPRLPRPRPRPYESPRP	-0.103
RRIRARPPRLPRPRPRPYGAPRP	-0.206
RRIRARPPRLPRPRPRPYGEPRP	-0.168
RRIRARPPRLPRPRPRPYHEPRP	-0.167
RRIRARPPRLPRPRPRPYHNPRP	-1.16
RRIRARPPRLPRPRPRPYHSPRP	-0.237
RRIRARPPRLPRPRPRPYKKPRP	-0.0244
RRIRARPPRLPRPRPRPYLLPRP	-0.76
RRIRARPPRLPRPRPRPYLYPRP	-0.312
RRIRARPPRLPRPRPRPYMMPRP	-1.22
RRIRARPPRLPRPRPRPYNLPRP	-0.00894
RRIRARPPRLPRPRPRPYNNPRP	-0.817
RRIRARPPRLPRPRPRPYNPPRP	-0.388
RRIRARPPRLPRPRPRPYNWPRP	-0.481
RRIRARPPRLPRPRPRPYPDPRP	-0.0126
RRIRARPPRLPRPRPRPYQLPRP	-0.215
RRIRARPPRLPRPRPRPYRCPRP	-0.174
RRIRARPPRLPRPRPRPYRTPRP	-0.0383
